# Reference: the supplement of paper PMC9170038
# System: MS2 coat protein
# Assay: apparent KD of MS2 coat protein; higher = weaker reporter binding
# Conditions: Eterna round: R107
# Method: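 RNA-MaP round R107: designed RNA switches with theophylline, tryptophan, arginine or FMN aptamers are transcribed on-chip within common flanks. They are titrated with SNAP-549-labelled MS2 coat protein in RNA-MaP buffer (100 mM Tris pH 7.5, 80 mM KCl, 4 mM MgCl2), without ligand or with the indicated ligand. Median apparent KD per design.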
# [1] = input ligand: theophylline 20 uM
# [2] = input ligand: tryptophan 2.4 mM
# [3] = input ligand: theophylline 2 mM
Sequence,apparent KD of MS2 coat protein (input ligand: arginine 13.2 mM) [nM],apparent KD of MS2 coat protein [1] [nM],apparent KD of MS2 coat protein [2] [nM],apparent KD of MS2 coat protein (input ligand: none) [nM],apparent KD of MS2 coat protein [3] [nM]
UGGUAGCCACACUUCAAACAUCGACAAGAUACCAGUUAAUCAACGAACCCUUGGCAGCUUCGUACAUGAGGAUCACCCAUGUGGA [theeternabot_exclusion_MS2_Theo_A_6],18.2,24.2,19.5,,
AAUAACAUGAGGAUCACCCAUGUAAAAGAUACCAGAGUGAUGAUCCUCCCUUGGCAGCUUAAUAACGCUAUCGGAAACGAUAGCG [Mat - Same State Theophlline A - Mod of Eli - D8],37.7,170,72,,
UUUACAUGAGGAUCACCCAUGUUCCAUGAUACCAGACAUGAAAAUGUCCCUUGGCAGCAUGAAUGAUUCAUAGGAUAAUUAUGGG [Medlanky],79.7,116,72.6,,
AAUGUGAUAGUCGUACUCUCACACUGAGAAGGAGCGCGAAAGUUCGCAGGUAGGUCGCUCAGUUAUACAUGAGGAUCACCCAUGU [Edgeised],21.9,26.8,20.9,21,27.3
AAGCGCACAUGAGGAUCACCCAUGUGCGGCCGAGGACCGGUACGGCCGCCACUCGGAACUAGAAAUAGGAACGGGUAGUGCGCAA [TryptophanA Sol_1],10.6,13.3,10.9,11.7,13.6
AGCCACUCGAACAUGGGUGACGAGUGGCAACGAGGACCGGUACGGCCGCCACUCGAAUAAACAUGAGGAUCACCCAUGUACAAAU [T''-M'-T'-T-MS2 - Design 9],33.1,146,,,355
GUACACAUGAGGAUCACCCAUGUACUGGUACGAGGACCGGUACGGCCGCCACUCGCCGAGAUUCAUAACACAUCAGAAAGCUCAC [theeternabot_sameState_MS2_Trp_A_45],13.5,27.6,,,18.8
UAUACAUGGGAUACCAUGGAUCCGAGUGAUACCAGCUAUCCGAAUAGCCCUUGGCAGCACAGUACAUGAGGAUCACCCAUGUAUA [Theo A SS t5],27.8,30.2,18.6,,
AGGUGGGUCUGAAGGAGCGCGAUAACAUGAGGAUCACCCAUGUUAAAUGGUACAUGAUACUCGCAGGUAGGUCGCAGUAAAACCA [Same State Arginine B GF 12],25,73.1,53.1,84.4,93.8
AGGAAACAACAUGAGGAUCACCCAUGUGAUACCAGUAUCAAAAGAUACCCUUGGCAGCACACAUGACAUGAGGAUCACCCAUGUA [AstrosSSTheA#2],33.2,52.4,74.4,,
AAACAUGACAUGGAUACCAGACACAUGAGGAUCACCCAUGUUGAGGAUCACCCAUGUCCCGUCCCUUGGCAGCCAGCAUGAGGAU [Exclusion Theophylline B 2],8.96,11.6,8.83,,
UUUACAUGAGGAUCACCCAUGUGCCAUGAUACCAGACAUGAAAAUGUCCCUUGGCAGCAUGAAUGAUUCAUAGGAUAAUUAUGGG [Obrany],69.4,146,80.9,,
ACAUGAGGAUCACCCAUGUGCAGAACGGAUACCAGCGUGCUGGUACGCCCUUGGCAGCCGGACAUGAGGAUCACCCAUGUGUGGA [Exclusion Theophylline A GF28],32.1,55.7,66,42.1,164
AGUGACUACAUCUGGAAUUAAGGUAGGGAAGGAGCGCGGUAAGACGCAGGUAGGUCGCCCUACAUGAGGAUCACCCAUGUGAUGU [XARG-A 28],75.5,264,232,354,331
CGUACAUGAGGAUCACCCAUGUUACAUGAUACCAGACAUGAAAAUGUCCCUUGGCAGCAUGGCGCUGAUAGGGCGGGAAACCCGA [Zabovresky],16.6,23.2,19.7,19.2,28.7
GUUGGUUUGGGAAGGAGCGGGUAUGUUGUCUACUUGAUCCUAACAUGAGGAUCACCCAUGUCCCAGGUAGGUCGCCCAAGCUUUG [12.aE],69.8,152,186,161,316
GGUCUCUGGAGCGAUACCAGCUUAAGUGUACUGGCCAGGUACAUGAGGAUCACCCAUGUAAGCCCUUGGCAGCGCUCCAGAGACC [#1 Exclusion - Theophylline B Attempt #14 (HarryS)],16.7,16.1,12.2,10.4,41.5
AGCAACAAGUCGGCCGCCACUCAUUUAACAUGAGGAUCACCCAUGUGAAUAACAUGGUUGUAAUAGAGGACCGGGACAGUUGCAU [JR_SSTryptoB_Sub016],205,283,,,401
AUUAUCGUAGGUUAAAGUUUAGAAACUGAAGGAGCGUGGUAUUACACAGGUAGGUCGCAGAUUUUACAUGAGGAUCACCCAUGUU [JR_ExcArginiA_Sub010],21.3,26.3,21.5,22.4,25.1

Sequence,apparent KD of MS2 coat protein (input ligand: arginine 13.2 mM) [nM],apparent KD of MS2 coat protein [1] [nM],apparent KD of MS2 coat protein [2] [nM],apparent KD of MS2 coat protein (input ligand: none) [nM],apparent KD of MS2 coat protein [3] [nM]
UGUAUGGACUGAAGGAGCGGAAGAUACCAUGAGGAUCACCCAUGGAAUAAGGCGAAAGCCUUCCAGGUAGGUCGCAGUCCAUACU,16.1,23.9,19.8,18.3,23.9
CCUAUGCAGUCGGCCGCCACUGAAAACAGCCUCAAAAUAAAUAUAACAUGAGGAUCACCCAUGUACAGGACCGGGACUGUAUAGG [Ex Tryptophan B 11],81,200,,,180
UUAUUUAACGGAAGGAGCGCGGAAAUUAAGGUGGGUAAACAUGAGGAUCACCCAUGUAAUCCGCAGGUAGGUCGCCGAUAUUUAU [#24 Exclusion - Arginine B],86.1,136,112,156,119
GGUGGCGUGACGGAUACCAGCCACCACCGAUAGACCACAUGAGGAUCACCCAUGUUGGGUGGCCCUUGGCAGCUGUCGUGCGGCG [#1 Same State - Theophylline B Attempt #17 (HarryS)],82,409,220,,
UCGCGAUAGAGAAGGAGCGUCAACACCACUUAACAUGAGGAUCACCCAUGUGUUACUUUGUGACAGGUAGGUCGCUCUAGCGCUU [JR_Nu_ExcArginiB_Sub026],21.1,25.3,18.4,19.3,20.9
UUGGGUAUGCGAAGGAGCGGGAAAUAUAUAUAUAUAAUCCUAACAUGAGGAUCACCCAUGUCCCAGGUAGGUCGCGCAUAUUUGG [12.J],40.6,88.9,67.8,62.9,106
CUCUCAUGAACAUGAGGAUCACCCAUGUAACGAGGACCGGUACGGCCGCCACUCGAACGUGGAAACCAAUCGAGUGAGGUGGGAG [Tryp A Ex t5b],45.9,98.4,352,116,119
AAGGUAUCACAGAGGUGAUUCAACUGUGAUACCAGCUAGGAAACUAGCCCUUGGCAGCACAUGAGGAUCACCCAUGUAAGAAUAA [(T)'-(M)'-(T1)-(T2)-(M1)-(M2)_Design3_2/19/17],36.3,33.6,37.1,36.5,128
GGGUACAUCGCGGCCGCCACUCAUGUAAAUGCAUGAGGAUCACCCAUGCCGAUGGAGACAUCGGAGAGGACCGGGUGAUGUACCG,41.8,68.7,33.6,45.8,71.1
GCUAGGUCUACGGCCGCCACUAGACGUGGGUUAAACAUGAGGAUCACCCAUGUGCUACAGGCGCAUAGGACCGGGUAGACCUAGC [SSTB NP+V+V2 #9 +-Same Structure],86.5,586,63.7,494,696
UGUAUGUGAUUUGAUACCAGACCAGCUGGUGGUACACGAGGAUCACCCGUGUAGGUUUGGGUCCCUUGGCAGCAAAUCGCAUACU [SS Theo B #24 Ms3],53.7,68.7,54.5,56.8,18.1
GAAACGUAGGUGGAGCGGUGAAAUGGCGAUACCAGCGUGGAAACACGCCCUUGGCAGCGUUAGAACAUGAGGAUCACCCAUGUUU [#21 Exclusion-TheophyllineA],19.3,62.4,26.4,,
CGAUACGUAACUGAUACCAGUGUACUGACAUGAGGAUCACCCAUGUUGGGUUUUGUUGUACACCCUUGGCAGCAGAAUCGUAUCG [AstrosExyTheB#18],52.1,77.5,59.9,,
GGCUAGUGCAUCGAUACCAGCUACAUGAGGAUCACCCAUGUAGGAAGGGUGGUACUCGAUAGCCCUUGGCAGCGAACACCUCCGG [Quoran],18.7,35.7,18.8,,
GAUCCACAUGAGGAUCACCCAUGUGAGGAUACCAGUACCAGAUCCUACCCUUGGCAGCCUAACCUUCAUUCAACACGAAUAAGAA [theeternabot_sameState_MS2_Theo_A_20],13.8,16.7,15,,
UGUUUGGUGCGCGAGUGUUGGAUAAUUGAUACCAGUGUAGAAGUGCGCCCUUGGCAGCGAAUCCUAACAUGAGGAUCACCCAUGU [5.X],49.1,52.3,39,,
AGACUGUCUUCGGACAGUCCGGACAGCCCGCGAGGACCGGUACGGCCGCCACUCGCACGAGGAUCACCCGUGUGAGGCUGUCCGA [Omei Tryp A Exc A v2],9.87,17.2,14.5,13.4,16.4
GAUUGCAUCGAUUCUCCACUCGCACCUGAUACCAGCGAUAGAAUUCGCCCUUGGCAGCAGUACACAUGAGGAUCACCCAUGUUAU [theeternabot_exclusion_MS2_Theo_A_20],25.5,42.4,35,,
GGGUGGUAGGCGGCCGCCACUGAUUUUUAUUUAUAGAUGACAUGAGGAUCACCCAUGUAGAUAUGCAGGACCGGGCCUGUUGUUU [aaaO],16.6,22.3,,,19.3
